# Substitutions are numbered along the chain they refer to.
# B1: Glu39His-R4R1-eglin (designed binder)
# chain: SMGSELKSFPEVVGKTVDQAREYFTLHYPQYDVYFLPHGSRVTRDLRYNRVRVFYNPGTNVVNHVPHVG
# B2: Tyr49Asp-R4R1-eglin (designed binder)
# chain: B1 chain with H38E, Y48D
# notes: R4R1 template; N-terminal Met removed; also called Asp49-R4R1-eglin; Asp49-R4R1-
# B3: R4K2R1-eglin (designed binder)
# chain: B1 chain with H38E, T43K
# notes: N-terminal Met removed
# B4: R4K1-eglin (designed binder)
# chain: B1 chain with H38E, R44K
# notes: N-terminal Met removed; also called R4K1-template
# B5: M4K2R1-eglin (designed binder)
# chain: B1 chain with H38E, R41M, T43K
# notes: N-terminal Met removed
# B6: K2R1-eglin (designed binder)
# chain: B1 chain with H38E, R41P, T43K
# notes: N-terminal Met removed
# B7: Glu39Pro-R4R1-eglin (designed binder)
# chain: B1 chain with H38P
# B8: Glu39Tyr-R4R1-eglin (designed binder)
# chain: B1 chain with H38Y
# B9: R6R4R1-eglin (designed binder)
# chain: B1 chain with H38E, G39R
# notes: N-terminal Met removed; also called Gly40 Arg on R4R1-template
# B10: Glu39Ser-R4R1-eglin (designed binder)
# chain: B1 chain with H38S
# Key:
# secreted, soluble furin [1] = molecular target: T1, secreted, soluble furin (human, UniProt P09958 108-715, limits assumed); assay: rapid furin inhibition assay; table lists substitutions with equal or enhanced inhibition of furin relative to the template
# T1 construct: Secreted, soluble construct; also called human furin
# T1 sequence (P09958 108-715 limits assumed): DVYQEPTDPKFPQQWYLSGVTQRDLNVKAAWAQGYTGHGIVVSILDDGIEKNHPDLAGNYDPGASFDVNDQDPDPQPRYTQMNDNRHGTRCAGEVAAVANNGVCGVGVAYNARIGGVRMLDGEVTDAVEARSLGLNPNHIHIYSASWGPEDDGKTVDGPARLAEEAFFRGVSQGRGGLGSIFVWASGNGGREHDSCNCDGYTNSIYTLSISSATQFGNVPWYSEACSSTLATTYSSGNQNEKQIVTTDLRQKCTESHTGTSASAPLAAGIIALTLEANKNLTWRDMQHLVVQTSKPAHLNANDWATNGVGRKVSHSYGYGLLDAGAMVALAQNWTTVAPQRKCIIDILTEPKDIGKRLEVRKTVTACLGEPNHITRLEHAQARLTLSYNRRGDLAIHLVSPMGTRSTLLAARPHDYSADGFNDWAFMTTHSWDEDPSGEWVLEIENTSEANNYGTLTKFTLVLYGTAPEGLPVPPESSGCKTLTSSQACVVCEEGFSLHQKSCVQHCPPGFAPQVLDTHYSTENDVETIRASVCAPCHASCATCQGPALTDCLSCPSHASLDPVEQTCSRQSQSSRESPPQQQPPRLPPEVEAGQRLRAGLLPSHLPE
# Method: 3. Rapid screening of libraries. Libraries were introduced into E. coli BL21 (DE3) cells and individual, cloned transformants were grown by shaking at 37° C. in 200 μl LB containing […] kanamycin in 96-well, 0.45 μm GHP membrane filter plates (Gelman) (FIG. 2). When O.D. 600 values reached 0.4, 60 μl of culture were transferred to secondary 96-well plates (Falcon), adjusted to 10% glycerol, and stored at −80° C. These frozen stocks served as master copies of the libraries. IPTG was added to the cultures to a final concentration of 1 mM, and the cultures were allowed to express eglin c variants for one hour in the filter plate. Expressed eglin c variants were extracted from the cells with 50 mM Tris-HCl pH 8.0 containing 2 mM EDTA following freezing and thawing. These extracts were collected as filtrates by centrifugation of the filter plate above a second plate. The filtrates, representing partially purified eglin c variants, were analyzed using a rapid fluorescence-based assay for processing enzyme inhibition as described below in Section 5. […] Frozen cells were cultured in 50 to 100 ml culture volumes, and DNA maxipreps were performed; the DNA preparations were then sequenced by automated DNA sequencing. Selected variants were expressed and purified on a larger scale, and affinities for furin or Kex2 were examined quantitatively (see below).
# 5. Rapid protease inhibition assay. Novel eglin variants were diluted 50-fold and incubated with secreted, soluble furin (0.5 nM) for 15 min in 96-well plates. The furin substrate (Boc-Arg-Val-Arg-Arg-MCA) was added, and release of AMC was monitored continuously in a 96-well fluorescence plate reader for 20 min, as described under Example 1. […] The plasmid DNA encoding such eglin c variant inhibitors were isolated and sequenced.
# secreted, soluble Kex2 [2] = molecular target: T2, secreted, soluble Kex2 (Saccharomyces cerevisiae, UniProt P13134 114-613, limits assumed); assay: affinity of purified variants, enzyme inhibition
# T2 construct: Secreted, soluble construct; also called kexin
# T2 sequence (looked up): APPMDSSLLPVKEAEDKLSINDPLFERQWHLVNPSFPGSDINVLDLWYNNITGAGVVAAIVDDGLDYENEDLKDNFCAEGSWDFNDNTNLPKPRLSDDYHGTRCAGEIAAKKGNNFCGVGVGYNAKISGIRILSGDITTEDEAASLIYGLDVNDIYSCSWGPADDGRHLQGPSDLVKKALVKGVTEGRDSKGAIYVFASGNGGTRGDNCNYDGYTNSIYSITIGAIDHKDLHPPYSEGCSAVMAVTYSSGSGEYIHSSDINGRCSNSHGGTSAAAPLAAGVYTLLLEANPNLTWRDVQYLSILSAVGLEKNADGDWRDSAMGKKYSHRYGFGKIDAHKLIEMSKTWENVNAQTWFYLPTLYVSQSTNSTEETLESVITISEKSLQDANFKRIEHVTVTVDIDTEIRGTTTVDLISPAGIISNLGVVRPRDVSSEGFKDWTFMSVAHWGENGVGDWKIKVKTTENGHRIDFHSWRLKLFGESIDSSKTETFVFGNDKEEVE
# secreted, soluble Kex2 [3] = molecular target: T2, secreted, soluble Kex2; assay: enzyme inhibition, purified variant; Kassoc
# secreted, soluble furin [4] = molecular target: T1, secreted, soluble furin; assay: enzyme inhibition, purified variant; Kassoc
# human PC7 [5] = molecular target: T3, human PC7 (human, UniProt Q16549 142-667, limits assumed); assay: enzyme inhibition, purified variant; Kassoc
# T3 sequence (looked up): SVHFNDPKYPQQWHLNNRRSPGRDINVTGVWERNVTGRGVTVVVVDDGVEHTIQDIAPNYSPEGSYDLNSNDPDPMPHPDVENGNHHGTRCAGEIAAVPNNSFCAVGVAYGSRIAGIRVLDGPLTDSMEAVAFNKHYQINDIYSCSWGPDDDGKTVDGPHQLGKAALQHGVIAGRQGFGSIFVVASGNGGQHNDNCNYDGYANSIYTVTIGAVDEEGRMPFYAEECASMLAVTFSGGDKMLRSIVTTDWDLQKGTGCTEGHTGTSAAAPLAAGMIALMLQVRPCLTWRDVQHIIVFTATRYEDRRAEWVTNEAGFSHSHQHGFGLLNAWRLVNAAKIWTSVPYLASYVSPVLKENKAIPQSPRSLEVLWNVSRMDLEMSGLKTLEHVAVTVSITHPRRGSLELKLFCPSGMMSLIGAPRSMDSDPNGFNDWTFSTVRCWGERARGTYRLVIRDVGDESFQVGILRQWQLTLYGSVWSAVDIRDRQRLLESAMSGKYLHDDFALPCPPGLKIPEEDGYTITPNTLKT
# secreted, soluble Kex2 [6] = molecular target: T2, secreted, soluble Kex2; assay: enzyme inhibition, purified variant
# Method: (§1) Affinities of eglin variants with secreted, soluble Kex2 (hereafter “Kex2”; Brenner, C. and Fuller, R. S. (1992) Proc. Natl. Acad. Sci. USA 89: 922-926) and secreted, soluble furin (hereafter, “furin”; Bravo, D. A. et al (1994) J. Biol. Chem. 269: 25830-25837; and Komiyama & Fuller (2000) Biochemistry 39: 15156-15165) were measured by incubating variants with the enzymes (˜0.5 to 2.0 nM) for 45 min to 1 h at 21° C. in one of two enzyme assay buffers. For Kex2, the buffer was 200 mM Bistris (pH 7.27) containing 1 mM CaCl₂ and 0.1% Triton X-100; and for furin, the buffer was 20 mM NaMES (pH 7.0) containing 1 mM CaCl₂ and 0.1% Triton X-100 for furin. 100 to 200 μL aliquots of reaction mixtures were transferred into triplicate wells of opaque 96 well plates (Costar), and residual enzyme activity was measured with an fmax fluorescence micro plate reader (Molecular Devices) by monitoring hydrolysis of a fluorogenic substrate Boc-Arg-Val-Arg-Arg-MCA. Data were graphically analyzed (KaleidaGraph) with an equation developed by Green and Work (1953). Site-directed mutagenesis at P2 and P6 of eglin c generated temporary inhibitors (Table 3) and exhausted possibility to improve affinity further with this approach.
# secreted, soluble furin [7] = molecular target: T1, secreted, soluble furin; assay: enzyme inhibition, purified variant
# Method: as §1
# secreted, soluble Kex2 [8] = molecular target: T2, secreted, soluble Kex2; assay: enzyme inhibition, purified variant; remark: listed apart in the source
# secreted, soluble furin [9] = molecular target: T1, secreted, soluble furin; assay: enzyme inhibition, purified variant; remark: listed apart in the source
# human PC7 [10] = molecular target: T3, human PC7; assay: enzyme inhibition, purified variant
# secreted, soluble Kex2 [11] = molecular target: T2, secreted, soluble Kex2; assay: enzyme inhibition, fluorogenic substrate; * temporary inhibition
# Method: as §1
# secreted, soluble furin [12] = molecular target: T1, secreted, soluble furin; assay: as above
# Method: as §1
# secreted, soluble Kex2 [13] = molecular target: T2, secreted, soluble Kex2; assay: equilibrium enzyme inhibition, fluorogenic substrate
# Method: as §1
# secreted, soluble furin [14] = molecular target: T1, secreted, soluble furin; assay: as above
# Method: as §1
# secreted, soluble Kex2 [15] = molecular target: T2, secreted, soluble Kex2; assay: equilibrium enzyme inhibition
# Method: (§2) Thus, R1-eglin refers to substitution of Arg at position P1.
# (§3) Affinities of eglin variants with secreted, soluble Kex2 (hereafter “Kex2”; Brenner, C. and Fuller, R. S. (1992) Proc. Natl. Acad. Sci. USA 89: 922-926) and secreted, soluble furin (hereafter, “furin”; Bravo, D. A. et al (1994) J. Biol. Chem. 269: 25830-25837; and Komiyama & Fuller (2000) Biochemistry 39: 15156-15165) were measured by incubating variants with the enzymes (˜0.5 to 2.0 nM) for 45 min to 1 h at 21° C. in one of two enzyme assay buffers. For Kex2, the buffer was 200 mM Bistris (pH 7.27) containing 1 mM CaCl₂ and 0.1% Triton X-100; and for furin, the buffer was 20 mM NaMES (pH 7.0) containing 1 mM CaCl₂ and 0.1% Triton X-100 for furin.
# secreted, soluble furin [16] = molecular target: T1, secreted, soluble furin; assay: equilibrium enzyme inhibition
# Method: as §2, §3
# secreted, soluble furin [17] = molecular target: T1, secreted, soluble furin; assay: calculated from kon (progress curves) and Ka
# Method: In some aspects of the present invention, biological application of the eglin c variants of the present invention as inhibitors of processing in vivo depends upon the rate of binding to target enzymes, where it is critical. Therefore, the rate of action of eglin variants with Kex2 and furin was examined by incubating 5×10⁻¹⁰ M enzyme with inhibitor at molar ratios of inhibitor to enzyme ranging from 10 to 80. […] The relationship between kobs and inhibitor concentration was linear. The values of kₒₙ were determined from the slope of such curves, and dissociation rate constants (koff) were calculated (koff=kₒₙ/Kₐ). For R4R1-eglin, koff was calculated to be 2×10⁻⁴s⁻¹ for Kex2, and 3×10⁻⁴s⁻¹ for furin. […] Similarly, the t_{1/2} of the complex of M4R1-eglin with Kex2 was estimated to be 3 h. For complex of R4K1-eglin with furin, koff was calculated to be 2×10⁻⁴s⁻¹ implying that the koff and t_{1/2} for this complex are similar to those for the complex of R4R1-eglin with furin.
binder,measurement,setting,value
B1,binding result,"secreted, soluble furin [1]",binds
same,binding result,"secreted, soluble Kex2 [2]",binds
B2,Ka,"secreted, soluble Kex2 [3]",1.8e+10 M⁻¹
same,Ka,"secreted, soluble furin [4]",3e+09 M⁻¹
same,Ka,human PC7 [5],5.6e+08 M⁻¹
same,Ki,"secreted, soluble Kex2 [6]",0.045 nM
same,Ki ratio (to R4R1- template),"secreted, soluble Kex2 [6]",0.05
same,fold enhanced affinity (relative to R4R1-eglin),"secreted, soluble Kex2 [6]",16 fold
same,Ki,"secreted, soluble furin [7]",0.33 nM
same,Ki ratio (to R4R1- template),"secreted, soluble furin [7]",0.132
same,fold enhanced affinity (relative to R4R1-eglin),"secreted, soluble furin [7]",10 fold
same,Ki,"secreted, soluble Kex2 [8]",0.056 nM
same,Ki,"secreted, soluble furin [9]",0.3 nM
same,Ki,human PC7 [10],1.8 nM
B3,Ki,"secreted, soluble Kex2 [11]",~0.5 nM
same,Ki,"secreted, soluble furin [12]",~0.5 nM
B4,Ki,"secreted, soluble Kex2 [13]",2.5 nM
same,Ki,"secreted, soluble furin [14]",38 nM
same,Ki,"secreted, soluble Kex2 [6]",2.5 nM
same,Ki ratio (to R4K1- template),"secreted, soluble Kex2 [6]",1
same,Ki,"secreted, soluble furin [7]",38 nM
same,Ki ratio (to R4K1- template),"secreted, soluble furin [7]",1
same,fold decrease of Ka relative to R4R1-eglin,"secreted, soluble Kex2 [15]",2.8 fold
same,fold higher affinity for Kex2 than for furin,"secreted, soluble Kex2 [15]",~20 fold
same,fold reduction of Ka relative to R4R1-eglin,"secreted, soluble furin [16]",15.4 fold
same,koff,"secreted, soluble furin [17]",0.0002 s⁻¹
B5,Ki,"secreted, soluble Kex2 [11]",0.59 nM
same,Ki,"secreted, soluble furin [12]",83 nM
B6,Ki,"secreted, soluble Kex2 [11]",0.67 nM
same,Ki,"secreted, soluble furin [12]",100 nM
B7,binding result,"secreted, soluble furin [1]",binds
same,binding result,"secreted, soluble Kex2 [2]",binds
B8,binding result,"secreted, soluble furin [1]",binds
same,binding result,"secreted, soluble Kex2 [2]",binds
B9,Ki,"secreted, soluble Kex2 [13]",0.29 nM
same,Ki,"secreted, soluble furin [12]",2 nM
B10,binding result,"secreted, soluble furin [1]",binds
same,binding result,"secreted, soluble Kex2 [2]",binds
